Source: patent US20130310317A1 (Bristol-Myers Squibb, published 2013)
Changes are numbered by the printed parent chain.

B1: 354G02 (designed binder)
chain: VSDVPRDLEVVAATPTSLLISWAEHLQVSRYYRITYGETGGNSPVQEFTVPRGVYTATISGLKPGVDYTITVYAVTPSNIIGRHYGPISINYRTHHHHHH
notes: Optimized derivative of 218C04
B2: 353F10 (designed binder)
chain: VSDVPRDLEVVAATPTSLLISWPTHYKVARYYRITYGETGGNSPVQEFTVPKHTYTATISGLKPGVDYTITVYAVTTTKGLRHYGPISINYRTHHHHHH
notes: as for B1
B3: 354F06 (designed binder)
chain: VSDVPRDLEVVAATPTSLLISWTTNLQVSRYYRITYGETGGNSPVQEFTVPKANTTATISGLKPGVDYTITVYAVTVSKGNRSYGPISINYRTHHHHHH
notes: as for B1
B4: 339A01 (designed binder)
chain: VSDVPRDLEVVAATPTSLLISWSTALKVQRYYRITYGETGGNSPVQEFTVPKHSHTATISGLKPGVDYTITVYAVTKMRDYRPISINYRTHHHHHH
notes: as for B1
B5: 354G09 (designed binder)
chain: B4 chain with S23P, T24Q, A25H, K27R, K52R, H53G, H55D
notes: as for B1
B6: 354F11 (designed binder)
chain: B4 chain with S23G, T24K, A25H, K27V, K52R, H53G, S54H, H55Y
notes: as for B1
B7: 338A05 (designed binder)
chain: B1 chain with A23S, E24D, H25S, Q27K, R52K, G53Q, V54Y, Y55H
notes: as for B1
B8: 354A10 (designed binder)
chain: VSDVPRDLEVVAATPTSLLISWSNRLVVKRYYRITYGETGGNSPVQEFTVPHQMKTATISGLKPGVDYTITVYAVTPGGYSGRNYGPISINYRTHHHHHH
notes: as for B1
B9: 387C02 (designed binder)
chain: B4 chain with T24A, A25R, Q29A, H53N, S54V, H55Y, K77G, M78V, D80N, R82G
notes: FG loop optimized derivative of 338A06
B10: 387A09 (designed binder)
chain: B4 chain with T24A, A25R, Q29A, H53N, S54V, H55Y, K77M, M78S, R82G
notes: as for B9
B11: 386A07 (designed binder)
chain: B4 chain with T24A, A25R, Q29A, H53N, S54V, H55Y, K77L, M78V, D80N, R82G
notes: as for B9
B12: 385D05 (designed binder)
chain: B4 chain with T24A, A25R, Q29A, H53N, S54V, H55Y, K77R, M78E
notes: as for B9
B13: 386A05 (designed binder)
chain: B4 chain with T24A, A25R, Q29A, H53N, S54V, H55Y, K77E, M78R
notes: as for B9
B14: 385E01 (designed binder)
chain: B4 chain with T24A, A25R, Q29A, H53N, S54V, H55Y, K77A, M78V
notes: as for B9
B15: 385E04 (designed binder)
chain: B4 chain with T24A, A25R, Q29A, H53N, S54V, H55Y, K77E, M78L, D80N, R82G
notes: as for B9
B16: 387B01 (designed binder)
chain: B4 chain with T24A, A25R, Q29A, H53N, S54V, H55Y, K77S, M78L, R82G
notes: as for B9
B17: 385A08 (designed binder)
chain: B4 chain with T24A, A25R, Q29A, H53N, S54V, H55Y, K77R, M78F, R82Q
notes: FG loop optimized derivative of 338A06; also called clone 385A08; unmodified 385A08
B18: 386A03 (designed binder)
chain: B4 chain with T24A, A25R, Q29A, H53N, S54V, H55Y, K77N, M78L, R82G
notes: as for B9
B19: 386F10 (designed binder)
chain: B4 chain with T24A, A25R, Q29A, H53N, S54V, H55Y, K77L, M78L, R82G
notes: as for B9
B20: 385F08 (designed binder)
chain: B4 chain with T24A, A25R, Q29A, H53N, S54V, H55Y, K77S, M78L, R82A
notes: as for B9
B21: 386F11 (designed binder)
chain: B4 chain with T24A, A25R, Q29A, H53N, S54V, H55Y, K77L, M78T, R82K
notes: as for B9
B22: 386F01 (designed binder)
chain: B4 chain with T24A, A25R, Q29A, H53N, S54V, H55Y, K77T, M78I
notes: as for B9
B23: 386H05 (designed binder)
chain: B4 chain with T24A, A25R, Q29A, H53N, S54V, H55Y, K77V, M78V
notes: as for B9
B24: 387A03 (designed binder)
chain: B4 chain with T24A, A25R, Q29A, H53N, S54V, H55Y, K77S, M78Y, R82W
notes: as for B9
B25: 385H06 (designed binder)
chain: B4 chain with T24A, A25R, Q29A, H53N, S54V, H55Y, K77Q, M78L, R82S
notes: as for B9
B26: 385B04 (designed binder)
chain: B4 chain with T24A, A25R, Q29A, H53N, S54V, H55Y, K77A, M78Y, R82Q
notes: as for B9
B27: 385A09 (designed binder)
chain: B4 chain with T24A, A25R, Q29A, H53N, S54V, H55Y, K77R, M78I, R82G
notes: as for B9

Target: T1, recombinant human IGF-IR (human, UniProt P08069 31-932)
T1 construct: Bought (R&D Systems); also called insulin-like growth factor-I receptor; IGF-1R
Assay: competitive ELISA: plate coated with 30 nM IGF-IR, clone bound first, then 10 nM biotinylated IGF-I as the blocked ligand, streptavidin-HRP/TMB, OD450
Description: MaxiSorp™ plates (Nunc International, Rochester, N.Y.) were coated with 30 nM IGF-IR in PBS at 4° C. overnight followed by blocking in OptEIA buffer (BD biosciences, San Diego, Calif.) for 3 hours at room temperature. Purified fibronectin-based scaffold proteins in OptEIA buffer were bound to each well for 1 hour at room temperature at concentrations ranging from 50 pM to 1 μM. […] The excess ligand was removed by washing with PBST and bound ligand was detected with streptavidin-HRP (Pierce, Rockford, Ill.) using TMB detection reagents (BD biosciences) according to the manufacturer's instructions

binding result | IC50 (read off the curve) [nM] | Binder
binds |  | B1
 | ~1 | B2
binds |  | B3
 | ~1 | B4
binds |  | B5
binds |  | B6

Target: T2, recombinant human insulin receptor (human, UniProt P06213-2 28-944, limits assumed)
T2 construct: Amine-coupled to a CM5 chip (8300 RU); also called IR
Assay: SPR (BIAcore); IR amine-coupled to chip, clone at 10 µM, signal as % of insulin signal
Description: One liter E. coli growths of selected optimized clones were prepared and the proteins were purified.
(§1) In brief, 60 ug/mL of IR diluted in acetate 4.5 was coupled/immobilized to a level of 8300 RU and 11.9 ug/mL of VEGF-R2-Fc diluted in acetate 5.0 was immobilized to a level of 9700 RU on flow cells 2 and 3. A blank reference surface was prepared on FC 1. […] Fibronectin-based scaffold proteins were diluted to 10 uM in HBS-EP (10 mM Hepes 150 mM NaCl 3 mM EDTA 0.05% Surfactant P20) and injected at 20 uL/min for 3 minutes over the flow cells at 25 C and dissociation was observed over 10 mins.

% IR Binding at 10 µM [%] | Binder
45 | B7
1 | B2
1 | B8
> 100 | B4

Target: T1, recombinant human IGF-IR
Assay: direct binding ELISA on coated IGF-IR

binding result | Binder
binds | B9
binds | B10
binds | B11
binds | B12
binds | B13
binds | B14
binds | B15

Target: T2, recombinant human insulin receptor
Assay: SPR (BIAcore), IR amine-coupled to chip
Description: as §1

binding result | Binder
no binding (tested: 10 µM) | B16
no binding (tested: 10 µM) | B17

Target: T3, IGF-IR-Fc (human, UniProt P08069 31-932)
T3 construct: range 1-932; Made in house by transient transfection, captured on Protein A on CM5 chips for kinetic analysis; also called human IGF-IR-Fc fusion protein; recombinant, immobilized IGF-IR (BIAcore); not shown: hinge and constant regions of human IgG1
Assay: SPR (BIAcore); IGF-IR-Fc captured on Protein A, clone in solution
Description: BIAcore analysis was performed using recombinant, immobilized IGF-IR and solution-phase clones in order to determine binding kinetics and binding affinities.
(§2) The binding kinetics of fibronectin-based scaffold proteins binding proteins to the target was measured using BIAcore 2000 or 3000 biosensors (Pharmacia Biosensor). A capture assay was developed utilizing an IGF-IR-Fc fusion. A similar reagent had been described by Forbes et al. (Forbes et al. 2002, European J. Biochemistry, 269, 961-968). The extracellular domain of human IGF-IR (aa 1-932) was cloned into a mammalian expression vector containing the hinge and constant regions of human IgG1. Transient transfection of the plasmid produced a fusion protein, IGF-IR-Fc which was subsequently purified by Protein A chromatography and captured on Protein A immobilized on Biasensor CM5 chips by amine coupling. The kinetic analysis involved the capture of IGF-IR-Fc on Protein A followed by injection of the fibronectin-based scaffold protein in solution and regeneration of the Protein A surface by glycine pH 2.0. Sensorgrams were obtained at each concentration and were evaluated using a program Biaevaluation, BIA Evaluation 2.0 (BIAcore), to determine the rate constants kₐ (kₒₙ) and kd (koff) The dissociation constant, KD was calculated from the ratio of rate constants koff/kₒₙ. Typically, a concentration series (2 uM to 0 uM) of purified fibronectin-based scaffold protein was evaluated for binding to protein A captured human IGF-IR-Fc fusion protein.

Kd [nM] | koff [s⁻¹] | kon [M⁻¹ s⁻¹] | Binder
0.067 | 0.00044 | 6.5e+06 | B16
0.088 | 0.00046 | 5.2e+06 | B18
0.034 | 0.00019 | 5.7e+06 | B17
0.123 | 0.00023 | 1.9e+06 | B19

Target: T3, IGF-IR-Fc
Assay: SPR (BIAcore); IGF-IR-Fc captured on Protein A, analyte in solution
Description: as §2

Kd [nM] | koff [s⁻¹] | kon [M⁻¹ s⁻¹] | Binder
0.023 | 0.00016 | 6.9e+06 | B17

Target: T1, recombinant human IGF-IR
Assay: direct binding ELISA: plate coated with 10 nM IGF-IR, His-tagged clone detected with His-HRP probe, TMB, OD450
Description: MaxiSorp™ plates (Nunc International, Rochester, N.Y.) were coated with 10 nM IGF-IR in PBS at 4° C. overnight followed by blocking in PBS-casein buffer (Pierce) for 3 hours at room temperature. Purified fibronectin-based scaffold proteins in casein buffer were bound to each well for 1 hour at room temperature at a concentration of 5 nM. The plate was washed with PBST and 100 μl of a 1:4000 dilution of His-HRP probe (Pierce) was added to each well with incubation for 15 min at room temperature. The wells were washed 5 times with PBST and the bound HRP was detected with TMB detection reagents (BD biosciences) according to the manufacturer's instructions.

EC50 (read off the curve) [nM] | binding result | Binder
~0.9 |  | B20
 | binds | B21
~1 |  | B16
 | binds | B22
 | binds | B23
 | binds | B24
 | binds | B25
 | binds | B26
 | binds | B27

Target: human IGF-IR on cells (human, UniProt P08069 31-1367)
Assay: cell-based or functional assay

IC50, serum mediated proliferation of NCI-H929 cells [nM] | Binder
~0.1 | B17

Target: T3, IGF-IR-Fc
Assay: SPR (BIAcore); IGF-IR-Fc captured on Protein A, clone in solution
Remark: another data set of the same source
Description: One liter E. coli growths of selected optimized clones were prepared and the proteins were purified. Surface plasmon resonance (BIAcore) analysis was performed using recombinant, immobilized IGF-IR and solution-phase clones in order to determine binding kinetics and binding affinities.
as §2

Kd [nM] | koff [s⁻¹] | kon [M⁻¹ s⁻¹] | Binder
0.261 | 0.00033 | 1.3e+06 | B7
0.056 | 0.00021 | 3.7e+06 | B2
0.158 | 0.00018 | 1.1e+06 | B8
0.565 | 0.00067 | 1.2e+06 | B4
